Values belong to the binder of their own block, whether it stands above or below them.
Columns and labels:
CXCL13 N-loop peptide = target: T1, CXCL13 N-loop peptide (human, biotin-Ahx at the N-terminus; amidated at the C-terminus); test: ELISA, biotinylated CXCL13 N-loop peptide on neutravidin plate, anti-human IgG-HRP, OD450 nm
T1 construct: Synthetic peptide, captured on Neutravidin-coated ELISA plates
T1 peptide: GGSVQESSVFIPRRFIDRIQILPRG
Protocol: (§1) To evaluate the antibodies' binding to chemokine peptides, 96-well plates (ThermoFisher, 442404) were coated with 50 μl per well of a 2 μg/ml Neutravidin (Life Technologies, 31000) solution in PBS, overnight at room temperature. Plates were washed 4 times with washing buffer (PBS+0.05% Tween-20 [Sigma-Aldrich]) and incubated with 50 μl per well of a 50 nM biotinylated peptide solution in PBS for 1 h at room temperature. After washing 4 times with washing buffer, plates were incubated with 200 μl per well of blocking buffer (PBS+2% BSA+0.05% Tween-20) for 2 h at room temperature. Plates were then washed 4 times with washing buffer, and serial dilutions of monoclonal antibodies or plasma were added in PBS +0.05% Tween-20 and incubated for 1 h at room temperature. To screen for the presence of anti-chemokine IgGs, plasma samples were assayed (unless otherwise stated) at 1:50 starting dilution followed by 3 fourfold serial dilutions (1:200, 1:800, 1:3200). Monoclonal antibodies were tested at 5 μg/ml starting concentration followed by 11 threefold serial dilutions. Plates were subsequently washed 4 times with washing buffer and incubated with anti-human IgG secondary antibody conjugated to horseradish peroxidase (HRP) (GE Healthcare, NA933) at a 1:5000 dilution in PBS+0.05% Tween-20. Finally, after washing 4 times with washing buffer, plates were developed by the addition of 50 μl per well of the HRP substrate TMB (ThermoFisher, 34021) for 9 min. The developing reaction was stopped with 50 μl per well of a 1 M H₂SO₄ solution, and absorbance was measured at 450 nm with an ELISA microplate reader (BioTek) with Gen5 software. A positive control (broadly reactive plasma from donor CLM70) and a negative control (uninfected participant) samples were included in each experiment. The Area Under the Curve (AUC) was obtained from two independent experiments and plotted with GraphPad Prism.

CXCL16 N-loop peptide = target: T2, CXCL16 N-loop peptide (human, biotin-Ahx at the N-terminus; amidated at the C-terminus); test: ELISA, biotinylated CXCL16 N-loop peptide on neutravidin plate, anti-human IgG-HRP, OD450 nm
T2 construct: Synthetic peptide, captured on Neutravidin-coated ELISA plates
T2 peptide: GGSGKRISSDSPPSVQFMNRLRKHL
Protocol: as §1

CCL7 N-loop peptide = target: T3, CCL7 N-loop peptide (human, biotin-Ahx at the N-terminus; amidated at the C-terminus); test: ELISA, biotinylated CCL7 N-loop peptide on neutravidin plate, OD450 nm
T3 peptide: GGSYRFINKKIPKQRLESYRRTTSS
Protocol: as §1, with “Plates were subsequently washed 4 times with washing buffer and incubated with anti-human IgG secondary antibody conjugated to horseradish peroxidase (HRP) (GE Healthcare, NA933) at a 1:5000 dilution in PBS+0.05% Tween-20. Finally, after washing 4 times with washing buffer, plates were developed by the addition of 50 μl per well of the HRP substrate TMB (ThermoFisher, 34021) for 9 min.” left out, “A positive control (broadly reactive plasma from donor CLM70) and a negative control (uninfected participant) samples were included in each experiment. The Area Under the Curve (AUC) was obtained from two independent experiments and plotted with GraphPad Prism.” left out

CCL8 N-loop peptide = target: T4, CCL8 N-loop peptide (human, biotin-Ahx at the N-terminus; amidated at the C-terminus); test: ELISA, biotinylated CCL8 N-loop peptide on neutravidin plate, anti-human IgG-HRP, OD450 nm
T4 construct: Synthetic peptide (GenScript), captured on Neutravidin-coated ELISA plates
T4 peptide: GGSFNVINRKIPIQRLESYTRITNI
Protocol: as §1

CCL11 N-loop peptide = target: T5, CCL11 N-loop peptide (human, biotin-Ahx at the N-terminus; amidated at the C-terminus); test: ELISA, biotinylated CCL11 N-loop peptide on neutravidin plate, OD450 nm
T5 peptide: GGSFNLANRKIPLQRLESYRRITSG
Protocol: as §1, with “Plates were subsequently washed 4 times with washing buffer and incubated with anti-human IgG secondary antibody conjugated to horseradish peroxidase (HRP) (GE Healthcare, NA933) at a 1:5000 dilution in PBS+0.05% Tween-20. Finally, after washing 4 times with washing buffer, plates were developed by the addition of 50 μl per well of the HRP substrate TMB (ThermoFisher, 34021) for 9 min.” left out, “A positive control (broadly reactive plasma from donor CLM70) and a negative control (uninfected participant) samples were included in each experiment. The Area Under the Curve (AUC) was obtained from two independent experiments and plotted with GraphPad Prism.” left out

CCL13 N-loop peptide = target: T6, CCL13 N-loop peptide (human, biotin-Ahx at the N-terminus; amidated at the C-terminus); test: ELISA, biotinylated CCL13 N-loop peptide on neutravidin plate, OD450 nm
T6 peptide: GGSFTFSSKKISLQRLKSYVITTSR
Protocol: as §1, with “Plates were subsequently washed 4 times with washing buffer and incubated with anti-human IgG secondary antibody conjugated to horseradish peroxidase (HRP) (GE Healthcare, NA933) at a 1:5000 dilution in PBS+0.05% Tween-20. Finally, after washing 4 times with washing buffer, plates were developed by the addition of 50 μl per well of the HRP substrate TMB (ThermoFisher, 34021) for 9 min.” left out, “A positive control (broadly reactive plasma from donor CLM70) and a negative control (uninfected participant) samples were included in each experiment. The Area Under the Curve (AUC) was obtained from two independent experiments and plotted with GraphPad Prism.” left out

CCL2 N-loop peptide = target: T7, CCL2 N-loop peptide (human, biotin-Ahx at the N-terminus; amidated at the C-terminus); test: ELISA, biotinylated CCL2 N-loop peptide on neutravidin plate, OD450 nm
T7 peptide: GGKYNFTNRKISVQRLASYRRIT
Protocol: as §1, with “Plates were subsequently washed 4 times with washing buffer and incubated with anti-human IgG secondary antibody conjugated to horseradish peroxidase (HRP) (GE Healthcare, NA933) at a 1:5000 dilution in PBS+0.05% Tween-20. Finally, after washing 4 times with washing buffer, plates were developed by the addition of 50 μl per well of the HRP substrate TMB (ThermoFisher, 34021) for 9 min.” left out, “A positive control (broadly reactive plasma from donor CLM70) and a negative control (uninfected participant) samples were included in each experiment. The Area Under the Curve (AUC) was obtained from two independent experiments and plotted with GraphPad Prism.” left out

binding result (CXCL13 N-loop peptide): binds
B4: aCXCL13.003 (antibody, V domains shown)
VH: QVQLQEWGAGLLKPSETLSLTCAVYGGSFSGYYWSWIRQPPGKGLEWIGEINHSGSTNYNPSLKSRVTISVDTSKNQFSLKLSSVTAADTAVYYCARAGRSYGDYGAFDIWGQGTMVTVSS
VL: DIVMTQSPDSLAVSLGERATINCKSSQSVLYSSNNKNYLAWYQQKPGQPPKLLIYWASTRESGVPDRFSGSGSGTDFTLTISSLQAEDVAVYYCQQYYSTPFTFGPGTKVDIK
notes: also called anti-CXCL13 N-loop antibody

binding result (CCL7 N-loop peptide): no binding (tested: 5000 ng/ml)
EC50 (read off the curve) (CCL8 N-loop peptide): ~0.01 µg/mL
binding result (CCL11 N-loop peptide): no binding (tested: 5000 ng/ml)
binding result (CCL13 N-loop peptide): no binding (tested: 5000 ng/ml)
binding result (CCL2 N-loop peptide): no binding (tested: 5000 ng/ml)
B5: aCCL8.001 (antibody, human IgG1, V domains shown)
VH: QVQLQESGPGLVKPAETLSLTCTVSGDSVSSESYFWGWIRQSPRKGLEWLGAVWYNGDTYYNPSVGGRVTISMDTSMNEISLRLSSVTAADTAVYFCATEHCIDEICSPASDSWGQGTLVTVSS
VL: DIVMTQSPDSLAVSLGERATINCKSSQSVFFSSNNENCLAWFQQKPGQPPKLLIHWASTRASGVPDRFSGSGSGTDFTLTISSLQAEDVAVYYCHQYLKAPRTFGQGTKVEIK
notes: kappa (VK4-1); also called VH4-39/VK4-1 antibody; anti-CCL8 antibody

The remaining lines, values behind:

B1: aCXCL13.002 (antibody, V domains shown)
VH: EVQLVESGGGLVKPGGSLRLSCAASGFTFSSYSMNWVRQAPGKGLEWVSSISSSSSYIYYADSVKGRFTISRDNAKNSLYLQMNSLRAEDTAVYYCARDGIYDYAPVDYWGQGTLVTVSS
VL: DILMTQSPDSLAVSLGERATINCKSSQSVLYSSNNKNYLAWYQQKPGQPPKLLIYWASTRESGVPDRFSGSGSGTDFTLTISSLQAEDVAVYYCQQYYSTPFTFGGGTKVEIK
notes: as for B4
binding result (CXCL13 N-loop peptide): binds

B2: aCXCL16.003 (antibody, human IgG1, V domains shown)
VH: EVQLVQSGAEVKKPGESLKISCKGSGYSFTSYWIGWVRQMPGKGLEWMGIIYPGDSDTRYSPSFQGQVTISADKSISTAYLQWSSLKASDTAMYYCARLHGDLYYFDYWGQGTLVTVSS
VL: QSVLTQEASVSGTVGQKVTLSCTGNSNNVGSYAVGWYQQISHGAPKTVMFGNSLPSGIPDRFSGSKSGTTASLTISGLQPEDEADYYCSTWDYSLSAQVFGGGTKLTVL
notes: also called anti-CXCL16 N-loop antibody
EC50 (read off the curve) (CXCL16 N-loop peptide): ~0.2 µg/mL

B3: aCXCL13.001 (antibody, human IgG1, V domains shown)
VH: QVQLVESGGGLVKPGGSLRLSCAASGFMFSDYYMSWIRQAPGKGLEWISYIGNSDASTFYADSVKGRFAISRDNAKNLLFLQMNSLRAEDTAVYYCARDGYSHSRGYSYGRKDAFDIWGRGTMVTVSS
VL: EIVLTQSPATLSLSPGERATLSCRASQSVSSYLAWYQQKPGQAPRLLIYAASQRATGIPARFSGTGSGTDFTLTISSLEPEDSAVYYCQQRGNWPGTFGQGTKVEIK
notes: as for B4
binding result (CXCL13 N-loop peptide): binds
